Reference: patent US20260234592

Test system: MBP5-TEV-paramyosin ΔSal (maltose binding protein domain and a paramyosin fragment linked by a TEV protease recognition sequence)

In the case of “commercially available TEV protease (New England Biolabs, Inc. Catalog #P8112S)”, the “cleavage of the substrate, 4° C., 1 hour” value is reported as “the commercially available enzyme only produced 62% cleavage in the same time”, the “cleavage of the substrate, 4° C., 3 hours” value is reported as “the commercial enzyme cleaved only 76% and 83% of the substrate at these times, respectively” and the “cleavage of the substrate, 4° C., 5 hours” value is reported as “the commercial enzyme cleaved only 76% and 83% of the substrate at these times, respectively”.
